Assay results taken from patent publication US20250333467A1 (TECTONIC OPERATING, published 2025).
Where two headings read alike, the source gives them in different places.

T1: human RXFP1 (human, UniProt Q9HBX9 1-757)
T1 sequence (looked up): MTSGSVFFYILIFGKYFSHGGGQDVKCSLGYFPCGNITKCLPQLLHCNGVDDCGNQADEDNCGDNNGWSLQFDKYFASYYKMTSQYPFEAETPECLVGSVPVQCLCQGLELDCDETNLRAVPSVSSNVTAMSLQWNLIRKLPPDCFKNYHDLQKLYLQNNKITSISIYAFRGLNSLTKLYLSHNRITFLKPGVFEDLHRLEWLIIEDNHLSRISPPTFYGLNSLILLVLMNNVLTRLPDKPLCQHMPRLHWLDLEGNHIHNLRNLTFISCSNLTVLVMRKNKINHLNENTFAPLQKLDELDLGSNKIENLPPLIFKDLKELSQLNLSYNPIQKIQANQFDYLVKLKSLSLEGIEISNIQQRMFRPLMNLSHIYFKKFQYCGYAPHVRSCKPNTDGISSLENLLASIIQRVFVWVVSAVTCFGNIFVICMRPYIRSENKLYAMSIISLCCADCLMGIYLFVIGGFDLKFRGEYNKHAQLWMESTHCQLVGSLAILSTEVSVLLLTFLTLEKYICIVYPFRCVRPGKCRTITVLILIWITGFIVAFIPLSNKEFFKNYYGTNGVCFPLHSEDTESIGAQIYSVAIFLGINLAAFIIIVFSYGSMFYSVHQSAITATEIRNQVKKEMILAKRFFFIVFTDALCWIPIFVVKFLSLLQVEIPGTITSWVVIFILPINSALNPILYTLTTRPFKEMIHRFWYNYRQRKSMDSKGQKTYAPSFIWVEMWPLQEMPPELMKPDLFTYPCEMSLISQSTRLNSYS


How the values were obtained:
Assay in all cases: cell-based or functional assay
human RXFP1 [1] = target: T1, human RXFP1
human RXFP1 [2] = target: T1, human RXFP1; remark: listed apart in the source
human RXFP1 [3] = target: T1, human RXFP1; remark: listed apart in the source

Row | Binder | Potency (cAMP, transient hRXFP1 in HEK293) (human RXFP1 [1]) [nM] | also measured
1 | SEQ ID NO: 138 (Fc fusion) DKTHTCPPCPAPEAAGGPSVFLFPPKPKDTLMISRTPEVTCVVVDVSHEDPEVKFNWYVDGVEVHNAKTKPREEQYNSTYRVVSVLTVLHQDWLNGKEYKCKVSNKALAAPIEKTISKAKGQPREPQVYTLPPSRDELTKNQVSLTCLVKGFYPSDIAVEWESNGQPENNYKTTPPVLDSDGSFFLYSKLTVDKSRWQQGNVFSCSVLHEALHSHYTQKSLSLSPGKGGSDSYQEEVIKLCGRELVRAQIAICGKSTGGEGSGGEGSGGGRQLYSALANKCCKVGCTKQSLAQFC | 7.5 | 
2 | SEQ ID NO: 367 (Fc fusion) DKTHTCPPCPAPEAAGGPSVFLFPPKPKDTLMISRTPEVTCVVVDVSHEDPEVKFNWYVDGVEVHNAKTKPREEQYNSTYRVVSVLTVLHQDWLNGKEYKCKVSNKALAAPIEKTISKAKGQPREPQVYTLPPSRDELTKNQVSLTCLVKGFYPSDIAVEWESNGQPENNYKTTPPVLDSDGSFFLYSKLTVDKSRWQQGNVFSCSVLHEALHSHYTQKSLSLSPGGGSDSWMEEVIKLCGRELVRAQIAICGKSTGGEGGGEEGGGEGGQLYSALANKCCHVGCTKRSLARFC |  | Transient HEK293 hRXFP1 cAMP EC50 (human RXFP1 [2]): ~150 nM; Potency (cAMP, transient hRXFP1 in HEK293) (human RXFP1 [3]): 140 nM
3 | SEQ ID NO: 133 (Fc fusion) DKTHTCPPCPAPEAAGGPSVFLFPPKPKDTLMISRTPEVTCVVVDVSHEDPEVKFNWYVDGVEVHNAKTKPREEQYNSTYRVVSVLTVLHQDWLNGKEYKCKVSNKALAAPIEKTISKAKGQPREPQVYTLPPSRDELTKNQVSLTCLVKGFYPSDIAVEWESNGQPENNYKTTPPVLDSDGSFFLYSKLTVDKSRWQQGNVFSCSVLHEALHSHYTQKSLSLSPGKGGSDSYQEEVIKLCGRELVRAQIAICGKSTASDAAGAEAEAGARQLYSALANKCCYVGCTKQSLAQFC | 30.6 | 
4 | SEQ ID NO: 123 (Fc fusion) DKTHTCPPCPAPEAAGGPSVFLFPPKPKDTLMISRTPEVTCVVVDVSHEDPEVKFNWYVDGVEVHNAKTKPREEQYNSTYRVVSVLTVLHQDWLNGKEYKCKVSNKALAAPIEKTISKAKGQPREPQVYTLPPSRDELTKNQVSLTCLVKGFYPSDIAVEWESNGQPENNYKTTPPVLDSDGSFFLYSKLTVDKSRWQQGNVFSCSVLHEALHSHYTQKSLSLSPGKGGSDSWQEEVIKLCGRELVRAQIAICGKSTASDAAGAEAEAGARQLYSALANKCCYVGCTKRSLAQFC | 11.7 | 
5 | SEQ ID NO: 120 (Fc fusion) DKTHTCPPCPAPEAAGGPSVFLFPPKPKDTLMISRTPEVTCVVVDVSHEDPEVKFNWYVDGVEVHNAKTKPREEQYNSTYRVVSVLTVLHQDWLNGKEYKCKVSNKALAAPIEKTISKAKGQPREPQVYTLPPSRDELTKNQVSLTCLVKGFYPSDIAVEWESNGQPENNYKTTPPVLDSDGSFFLYSKLTVDKSRWQQGNVFSCSVLHEALHSHYTQKSLSLSPGKGGSDSFQEEVIKLCGRELVRAQIAICGKSTASDAAGAEAEAGARQLYSALANKCCHVGCTKRSLAQFC | 4.8 | 
6 | SEQ ID NO: 124 (Fc fusion) DKTHTCPPCPAPEAAGGPSVFLFPPKPKDTLMISRTPEVTCVVVDVSHEDPEVKFNWYVDGVEVHNAKTKPREEQYNSTYRVVSVLTVLHQDWLNGKEYKCKVSNKALAAPIEKTISKAKGQPREPQVYTLPPSRDELTKNQVSLTCLVKGFYPSDIAVEWESNGQPENNYKTTPPVLDSDGSFFLYSKLTVDKSRWQQGNVFSCSVLHEALHSHYTQKSLSLSPGKGGSDSWQEEVIKLCGRELVRAQIAICGKSTASDAAGAEAEAGARQLYSALANKCCLVGCTKRSLAQFC | 20.8 | 
7 | SEQ ID NO: 135 (Fc fusion) DKTHTCPPCPAPEAAGGPSVFLFPPKPKDTLMISRTPEVTCVVVDVSHEDPEVKFNWYVDGVEVHNAKTKPREEQYNSTYRVVSVLTVLHQDWLNGKEYKCKVSNKALAAPIEKTISKAKGQPREPQVYTLPPSRDELTKNQVSLTCLVKGFYPSDIAVEWESNGQPENNYKTTPPVLDSDGSFFLYSKLTVDKSRWQQGNVFSCSVLHEALHSHYTQKSLSLSPGKGGSDSYQEEVIKLCGRELVRAQIAICGKSTGGEGSGGEGEGGGRQLYSALANKCCYVGCTKQSLAQFC | 29.5 | 
8 | SEQ ID NO: 90 (Fc fusion) DKTHTCPPCPAPEAAGGPSVFLFPPKPKDTLMISRTPEVTCVVVDVSHEDPEVKFNWYVDGVEVHNAKTKPREEQYNSTYRVVSVLTVLHQDWLNGKEYKCKVSNKALAAPIEKTISKAKGQPREPQVYTLPPSRDELTKNQVSLTCLVKGFYPSDIAVEWESNGQPENNYKTTPPVLDSDGSFFLYSKLTVDKSRWQQGNVFSCSVLHEALHSHYTQKSLSLSPGKGGSDSWQEEVIKLCGRELVRAQIAICGKSTASDAAGAQAQAGARQLYSALANKCCHVGCTKRSLAQFC |  | THP1 (endogenous RXFP1) cAMP EC50 (human RXFP1 [2]): 4.4 nM; Transient HEK293 hRXFP1 cAMP EC50 (human RXFP1 [2]): 0.6 nM; Potency (cAMP, transient hRXFP1 in HEK293) (human RXFP1 [3]): 0.6 nM
9 | SEQ ID NO: 137 (Fc fusion) DKTHTCPPCPAPEAAGGPSVFLFPPKPKDTLMISRTPEVTCVVVDVSHEDPEVKFNWYVDGVEVHNAKTKPREEQYNSTYRVVSVLTVLHQDWLNGKEYKCKVSNKALAAPIEKTISKAKGQPREPQVYTLPPSRDELTKNQVSLTCLVKGFYPSDIAVEWESNGQPENNYKTTPPVLDSDGSFFLYSKLTVDKSRWQQGNVFSCSVLHEALHSHYTQKSLSLSPGKGGSDSYQEEVIKLCGRELVRAQIAICGKSTGGEGSGGEGSGGGRQLYSALANKCCYVGCTKQSLAQFC | 11.4 | 
10 | SEQ ID NO: 134 (Fc fusion) DKTHTCPPCPAPEAAGGPSVFLFPPKPKDTLMISRTPEVTCVVVDVSHEDPEVKFNWYVDGVEVHNAKTKPREEQYNSTYRVVSVLTVLHQDWLNGKEYKCKVSNKALAAPIEKTISKAKGQPREPQVYTLPPSRDELTKNQVSLTCLVKGFYPSDIAVEWESNGQPENNYKTTPPVLDSDGSFFLYSKLTVDKSRWQQGNVFSCSVLHEALHSHYTQKSLSLSPGKGGSDSYQEEVIKLCGRELVRAQIAICGKSTASDAAGAEAEAGARQLYSALANKCCKVGCTKQSLAQFC | 21.6 | 
11 | SEQ ID NO: 121 (Fc fusion) DKTHTCPPCPAPEAAGGPSVFLFPPKPKDTLMISRTPEVTCVVVDVSHEDPEVKFNWYVDGVEVHNAKTKPREEQYNSTYRVVSVLTVLHQDWLNGKEYKCKVSNKALAAPIEKTISKAKGQPREPQVYTLPPSRDELTKNQVSLTCLVKGFYPSDIAVEWESNGQPENNYKTTPPVLDSDGSFFLYSKLTVDKSRWQQGNVFSCSVLHEALHSHYTQKSLSLSPGKGGSDSLQEEVIKLCGRELVRAQIAICGKSTASDAAGAEAEAGARQLYSALANKCCHVGCTKRSLAQFC | 5.5 | 
12 | SEQ ID NO: 122 (Fc fusion) DKTHTCPPCPAPEAAGGPSVFLFPPKPKDTLMISRTPEVTCVVVDVSHEDPEVKFNWYVDGVEVHNAKTKPREEQYNSTYRVVSVLTVLHQDWLNGKEYKCKVSNKALAAPIEKTISKAKGQPREPQVYTLPPSRDELTKNQVSLTCLVKGFYPSDIAVEWESNGQPENNYKTTPPVLDSDGSFFLYSKLTVDKSRWQQGNVFSCSVLHEALHSHYTQKSLSLSPGKGGSDSIQEEVIKLCGRELVRAQIAICGKSTASDAAGAEAEAGARQLYSALANKCCHVGCTKRSLAQFC | 6.5 | 
13 | SEQ ID NO: 136 (Fc fusion) DKTHTCPPCPAPEAAGGPSVFLFPPKPKDTLMISRTPEVTCVVVDVSHEDPEVKFNWYVDGVEVHNAKTKPREEQYNSTYRVVSVLTVLHQDWLNGKEYKCKVSNKALAAPIEKTISKAKGQPREPQVYTLPPSRDELTKNQVSLTCLVKGFYPSDIAVEWESNGQPENNYKTTPPVLDSDGSFFLYSKLTVDKSRWQQGNVFSCSVLHEALHSHYTQKSLSLSPGKGGSDSYQEEVIKLCGRELVRAQIAICGKSTGGEGSGGEGEGGGRQLYSALANKCCKVGCTKQSLAQFC | 17.6 | 
14 | SEQ ID NO: 125 (Fc fusion) DKTHTCPPCPAPEAAGGPSVFLFPPKPKDTLMISRTPEVTCVVVDVSHEDPEVKFNWYVDGVEVHNAKTKPREEQYNSTYRVVSVLTVLHQDWLNGKEYKCKVSNKALAAPIEKTISKAKGQPREPQVYTLPPSRDELTKNQVSLTCLVKGFYPSDIAVEWESNGQPENNYKTTPPVLDSDGSFFLYSKLTVDKSRWQQGNVFSCSVLHEALHSHYTQKSLSLSPGKGGSDSWQEEVIKLCGRELVRAQIAICGKSTASDAAGAEAEAGARQLYSALANKCCQVGCTKRSLAQFC | 11.1 | 
15 | SEQ ID NO: 119 (Fc fusion) DKTHTCPPCPAPEAAGGPSVFLFPPKPKDTLMISRTPEVTCVVVDVSHEDPEVKFNWYVDGVEVHNAKTKPREEQYNSTYRVVSVLTVLHQDWLNGKEYKCKVSNKALAAPIEKTISKAKGQPREPQVYTLPPSRDELTKNQVSLTCLVKGFYPSDIAVEWESNGQPENNYKTTPPVLDSDGSFFLYSKLTVDKSRWQQGNVFSCSVLHEALHSHYTQKSLSLSPGKGGSDSYQEEVIKLCGRELVRAQIAICGKSTASDAAGAEAEAGARQLYSALANKCCHVGCTKRSLAQFC | 4.9 | 
